Substitutions are numbered along the chain they refer to.
B1: anti-human IL-1α monoclonal antibody 3D12 (antibody, from a related filing, V domains shown)
VH: QIQLVQSGPELKKPGETVKISCKASGYTFRNYGMNWVKQAPGKDLKRMAWINTYTGESTYADDFKGRFAFSLETSASTAYLQINNLKNEDTATYFCARGIYYYGSSYAMDYWGQGTSVTVSS
VL: IQMTQTTSSLSASLGDRVTISCRASQDISNCLNWYQQKPDGTVKLLIYYTSRLHSGVPSRFSGSGSGTDYSLTISNLEQEDIATYFCQQGKTLPYAFGGGTKLEINR
B2: humanized anti-human IL-1α antibody H3D12.8 (antibody, from a related filing, human IgG1, V domains shown)
VH: EIQLVQSGSELKKPGASVKVSCKASGYTFTNYGMNWVRQAPGQDLERMAWINTYTGESTYADDFKGRFVFSLDTSVSTAYLQISSLKAEDTAVYFCARGIYYYGSSYAMDYWGQGTTVTVSS
VL: DIQMTQSPSSLSASVGDRVTITCRASQDISNCLNWYQQKPGKTPKLLIYYTSRLHSGVPSRFSGSGSGTDYTFTISSLQPEDIATYFCQQGKTLPYAFGQGTKLEIK
B3: humanized anti-human IL-1α antibody H3D12.r16 (antibody, from a related filing, human IgG1, V domains shown)
VH: EVQLVQSGAEVKKPGASVKVSCKASGYTFKYYGMNWVRQAPGQGLERMGWINTYTGQSTYADDFKGRVTFTLDTSTSTAYMELSSLRSEDTAVYYCARDIYYYGSDFAMDYWGQGTTVTVSS
VL: B2 VL with C32M, T43A, H55K, S56P, L94A, A97T
B4: humanized anti-human IL-1α antibody H3D12.r37 (antibody, from a related filing, human IgG1, V domains shown)
VH: B3 VH with V2I, Q57E, T59R, Y103F, F107Y
VL: B2 VL with C32R, T43A, T51A, H55K, S56P, K92N, L94P, A97T
B5: humanized anti-human IL-1α antibody H3D12.16 (antibody, from a related filing, human IgG1, V domains shown)
VH: B2 VH with S9A, L11V, V69T, S71T, V76T, L81M, Q82E, I83L, K87R, A88S
VL: B2 VL
B6: humanized anti-human IL-1α antibody H3D12.r10 (antibody, from a related filing, human IgG1, V domains shown)
VH: B3 VH with V2I, K30A, Y31H, R47W, V68F, D99G, Y103F, D106N, F107Y
VL: B2 VL with C32M, H55R, T93K, L94P, A97T

molecular target: T1, recombinant human IL-1α (human) (UniProt P01583); test: SPR (Biacore), antibody captured, IL-1α in solution
T1 sequence: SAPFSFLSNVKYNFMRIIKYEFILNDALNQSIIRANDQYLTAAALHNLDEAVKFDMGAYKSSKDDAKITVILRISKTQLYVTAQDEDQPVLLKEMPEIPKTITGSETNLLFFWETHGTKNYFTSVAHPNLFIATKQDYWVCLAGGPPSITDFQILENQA

B1 and B2 are within 1.5-fold of each other in Kd: 1340 pM for the first, 1350 pM for the second.

B3 and B4 are within 1.5-fold of each other in Kd: 31 pM for the first, 28 pM for the second.

Going from B5 to B6, the Kd falls from 2090 pM to 32 pM (65-fold).

molecular target: T1, recombinant human IL-1α (human); test: cell-based or functional assay

Going from B1 to B2, the Neutralization Potency (IC50, pM), MRC-5 bioassay (IL-8 production) rises from 1880 pM to 1950 pM.

First: B3
Second: B4
The Neutralization Potency (IC50, pM), MRC-5 bioassay (IL-8 production) of the first is lower: 0.6 pM for the first, 1.4 pM for the second.

First: B5
Second: B6
The Neutralization Potency (IC50, pM), MRC-5 bioassay (IL-8 production) of the first is higher: 1360 pM for the first, 0.6 pM for the second.
